The values below come from the FLAb antibody collection (doi:10.7554/elife.23156).

Where only a bound is given, the exact number is not on record here.

To fix the notation:
B1: scFv; the commonest letter at each place (parent)
chain 1: EVKLDETGGGLVQPGRPMKLSCVASGFTFSDYWMNWVRQSPEKGLEWVAQIRNKPYNYETYYSDSVKGRFTISRDDSKSSVYLQMNNLRVEDMGIYYCTGSYYGMDYWGQGTSVTVS
chain 2: DVVMTQTPLSLPVSLGDQASISCRSSQSLVHSNGNTYLRWYLQKPGQSPKVLIYKVSNRFSGVPDRFSGSGSGTDFTLKISRVEAEDLGVYFCSQSTHVPWTFGGGTKLEIK

The variants in data set [1] derive from B1. The experiment in a line: Kd (Tite-Seq). Conditions: with fluorescein; format: scFv 4-4-20, heavy + light.
Variants of B1 are the subject of data set [2]. The experiment in a line: yeast surface expression (ratio to wild type); higher = more expressed. Conditions: format: scFv 4-4-20, heavy + light.

As to chain 1 Y32G M34N, the Kd in data set [1] was at least 10 µM. Further, the yeast surface expression in data set [2] worked out at 0.613.
The like results for chain 1 Y32G M34P were, in that order, at least 10 µM and 0.545.
In the same order, the values of chain 1 Y32G M34E are at least 10 µM and 0.194.
With chain 1 Y32G M34C, the dissociation constant (Kd) in data set [1] was at least 10 µM. The yeast surface expression in data set [2] was determined as 0.676.
The like results for chain 1 Y102D M105I were, in that order, at least 10 µM and 1.08.
For chain 1 W108R, the Kd in data set [1] was at least 10 µM. The yeast surface expression in data set [2] amounted to 0.455.
The like results for chain 1 W108S were, in that order, 0.0158 µM and 0.51.
In the same order, the values of chain 1 W108Q are 0.0233 µM and 0.506.
For the variant chain 1 W108Y, the Kd in data set [1] was at most 0.000316 µM. The yeast surface expression in data set [2] is 0.963.
In the same order, the values of chain 1 W108T are 0.000399 µM and 0.775.
The like results for chain 1 W108V were, in that order, at most 0.000316 µM and 0.831.
As to chain 1 Y32L M34T W36I, the Kd in data set [1] was at least 10 µM. The yeast surface expression in data set [2] came to 0.622.
Take chain 1 Y32V: the Kd in data set [1] is at least 10 µM. For the same variant, the yeast surface expression in data set [2] was 1.02.
As to chain 1 Y32P, the Kd in data set [1] is at least 10 µM. In addition, in data set [2], the yeast surface expression stood at 0.908.
In the same order, the values of chain 1 Y32R are 0.064 µM and 0.954.
In the same order, the values of chain 1 Y32T are at least 10 µM and 1.04.
With chain 1 Y32H, the Kd in data set [1] amounted to 0.0265 µM. In addition, the yeast surface expression in data set [2] came out at 1.03.
The like results for chain 1 Y32M were, in that order, 0.972 µM and 1.03.
For the variant chain 1 Y32N, the Kd in data set [1] is at least 10 µM. Besides, the yeast surface expression in data set [2] is 1.21.
The like results for chain 1 Y32G were, in that order, 1.63 µM and 0.961.
In the same order, the values of chain 1 Y32F are 0.00352 µM and 0.989.
In the same order, the values of chain 1 Y32W are at least 10 µM and 0.805.
As to chain 1 Y32C, in data set [1], the Kd was 0.143 µM. Also, in data set [2], the yeast surface expression turned out to be 1.05.
In the same order, the values of chain 1 Y32S are 0.155 µM and 1.06.
Take chain 1 Y32Q: the equilibrium dissociation constant (Kd) in data set [1] was at least 10 µM. In addition, the yeast surface expression in data set [2] was found to be 0.929.
In the same order, the values of chain 1 Y32E are at least 10 µM and 0.927.
The like results for chain 1 Y32L were, in that order, 0.435 µM and 0.893.
In the case of chain 1 Y32I, in data set [1], the Kd is at least 10 µM. Further, the yeast surface expression in data set [2] came to 0.938.
In the same order, the values of chain 1 Y32A are 0.00993 µM and 1.15.
With chain 1 Y32K, the Kd in data set [1] worked out at 1.67 µM. For the same variant, the yeast surface expression in data set [2] turned out to be 0.804.
In the same order, the values of chain 1 Y32D are at least 10 µM and 1.04.
The like results for chain 1 Y32D N35Y were, in that order, at least 10 µM and 0.498.
In the same order, the values of chain 1 Y32Q W33N are at least 10 µM and 0.726.
chain 1 Y32S M34K V37D: the Kd in data set [1] is at least 10 µM. For the same variant, in data set [2], the yeast surface expression amounted to 0.882.
Turning to chain 1 Y102C M105P, the Kd in data set [1] was at least 10 µM. In data set [2], the yeast surface expression was found to be 0.69.
The like results for chain 1 Y102A D106L were, in that order, at least 10 µM and 0.691.
In the case of chain 1 Y102A D106S, the Kd in data set [1] is 0.0038 µM. In addition, the yeast surface expression in data set [2] came out at 1.06.
On to chain 1 Y102F Y103I, for which the Kd in data set [1] turned out to be 0.0729 µM. The yeast surface expression in data set [2] came out at 0.793.
In the same order, the values of chain 1 Y32K M34C are at least 10 µM and 0.91.
In the same order, the values of chain 1 Y102G G104L are at least 10 µM and 0.816.
The like results for chain 1 Y102G G104F were, in that order, at least 10 µM and 0.545.
For chain 1 Y102G G104H, the Kd in data set [1] was at least 10 µM. In addition, the yeast surface expression in data set [2] worked out at 1.06.
In the same order, the values of chain 1 Y32R M34S are at least 10 µM and 0.191.
For the variant chain 1 Y102D W108M, the Kd in data set [1] stood at 0.000604 µM. In addition, the yeast surface expression in data set [2] came out at 0.926.
In the same order, the values of chain 1 Y102D W108T are 0.00917 µM and 0.785.
chain 1 Y32W W36A: the Kd in data set [1] was at least 10 µM. Moreover, in data set [2], the yeast surface expression amounted to 0.204.
In the same order, the values of chain 1 Y32W W36Q are at least 10 µM and 0.936.
The like results for chain 1 Y32T M34E were, in that order, at least 10 µM and 0.451.
In the same order, the values of chain 1 Y32E V37Y are at least 10 µM and 0.806.
On to chain 1 Y32V M34Q, for which, in data set [1], the Kd is at least 10 µM. In data set [2], the yeast surface expression was found to be 0.849.
In the same order, the values of chain 1 Y32V M34D are at least 10 µM and 0.218.
In the same order, the values of chain 1 Y32L N35F are at least 10 µM and 0.363.
The like results for chain 1 Y102A W108P were, in that order, 0.000504 µM and 0.525.
On to chain 1 Y102C D106L, for which, in data set [1], the Kd was at least 10 µM. In data set [2], the yeast surface expression is 0.306.
In the same order, the values of chain 1 Y32T V37E are at least 10 µM and 0.222.
The like results for chain 1 Y32T V37A were, in that order, at least 10 µM and 0.65.
Take chain 1 Y32T V37H: the Kd in data set [1] is at least 10 µM. In addition, the yeast surface expression in data set [2] was determined as 0.624.
The like results for chain 1 Y32T V37G were, in that order, at least 10 µM and 1.64.

By Kd is commonly meant the constant that tells how readily two partners part at equilibrium.
